Measurements reported in IntAct's records for PubMed 28164238.

B1: T-box transcription factor TBX5 (Mus musculus), P70326 (parent)
chain: MADTDEGFGLARTPLEPDSKDRSCDSKPESALGAPSKSPSSPQAAFTQQGMEGIKVFLHERELWLKFHEVGTEMIITKAGRRMFPSYKVKVTGLNPKTKYILLMDIVPADDHRYKFADNKWSVTGKAEPAMPGRLYVHPDSPATGAHWMRQLVSFQKLKLTNNHLDPFGHIILNSMHKYQPRLHIVKADENNGFGSKNTAFCTHVFPETAFIAVTSYQNHKITQLKIENNPFAKGFRGSDDLELHRMSRMQSKEYPVVPRSTVRHKVTSNHSPFSSETRALSTSSNLGSQYQCENGVSGPSQDLLPPPNPYPLAQEHSQIYHCTKRKDEECSSTEHPYKKPYMETSPSEEDTFYRSGYPQQQGLSTSYRTESAQRQACMYASSAPPSEPVPSLEDISCNTWPSMPSYSSCTVTTVQPMDRLPYQHFSAHFTSGPLVPRLAGMANHGSPQLGEGMFQHQTSVAHQPVVRQCGPQTGLQSPGGLQPPEFLYTHGVPRTLSPHQYHSVHGVGMVPEWSENS

Experiments:
[1] = variants of: B1; settings: with klf13_mouse Klf13, Q9JJZ6
[2] = variants of: B1; settings: with nkx25_mouse Nkx2-5, P42582
nkx25_mouse Nkx2-5, P42582, sequence (P42582 whole entry): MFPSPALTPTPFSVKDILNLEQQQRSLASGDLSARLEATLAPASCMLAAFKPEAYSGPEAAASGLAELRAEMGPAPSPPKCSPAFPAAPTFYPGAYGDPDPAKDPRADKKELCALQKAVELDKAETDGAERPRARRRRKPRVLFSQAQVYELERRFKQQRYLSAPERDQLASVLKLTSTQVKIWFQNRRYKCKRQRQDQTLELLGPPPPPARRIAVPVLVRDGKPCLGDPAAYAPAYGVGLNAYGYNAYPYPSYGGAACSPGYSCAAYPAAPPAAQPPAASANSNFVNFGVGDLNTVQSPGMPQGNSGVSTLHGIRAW

klf13_mouse Klf13, Q9JJZ6, sequence (Q9JJZ6 whole entry): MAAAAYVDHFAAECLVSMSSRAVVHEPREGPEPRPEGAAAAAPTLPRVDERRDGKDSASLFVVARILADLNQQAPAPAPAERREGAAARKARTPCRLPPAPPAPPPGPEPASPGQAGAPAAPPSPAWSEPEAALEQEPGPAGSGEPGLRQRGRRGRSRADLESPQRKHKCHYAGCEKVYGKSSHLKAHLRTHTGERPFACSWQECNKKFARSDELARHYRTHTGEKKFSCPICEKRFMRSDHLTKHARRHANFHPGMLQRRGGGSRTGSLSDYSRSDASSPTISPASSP

| Variant | effect of a mutation on the interaction [1] | effect of a mutation on the interaction [2] |
| --- | --- | --- |
| R134C | with no effect | with no effect |
| G169R | decreasing interaction strength | decreasing interaction strength |
| T223M | decreasing interaction strength | decreasing interaction strength |
| R237Q | decreasing interaction strength | decreasing interaction strength |
| A79V | decreasing interaction strength | decreasing interaction strength |
| W121G | decreasing interaction strength | with no effect |
| Y100C | decreasing interaction strength | decreasing interaction strength |
